Reference: patent US20140079722A1, “EXTRACELLULAR TARGETED DRUG CONJUGATES” (CENTROSE, LLC, priority 2011, published 2014)

How the values were obtained:
A549 xenograft = A549 xenograft model (cell implant); type: in vivo, Hsd:Athymic Nude-Foxn1nu mice
Experimental: Briefly, to establish a non-small-cell lung cancer disease model, 6×10^6 A549 cells in 200 μL, RPMI1640+50% Matrigel HC (BD Biosciences, San Jose, Calif.) were implanted into the left flank of Hsd:Athymic Nude-Foxn1^nu mice (Harlan, Indianapolis, Ind.). Therapy with antibody-drug conjugates was then initiated when the tumor volume in groups of 5 animals averaged ˜300 mm^3. Treatment using vehicle control, 0.1 and 1 mg/kg M53-PEG24-CEN09-106, and 10 mg/kg control M53-PEG24-CEN09-106 (a control conjugate with a drug loading of 7 drugs per antibody where the antibody's target is not on the cell surface but drug and linker and antibody isotype are the same as M53-PEG24-CEN09-106) were all administered i.v. using the schedule of one injection every 7 days with 3 total injected doses (q7d×3). 15 mg/kg paclitaxel dosed at q2d×5 served as a positive control treatment group. Using this schedule, tumor volumes were measured for each group using calibrated vernier calipers and plotted against first day of tumor implant for 54 days post-implant and 40 days post-initial dose, to produce the graph shown in FIG. 3.

[1] = Single intraperitoneal dose tolerability; type: in vivo, male BALB/c mice; conditions: drug loading of 2, 500 mg/kg intraperitoneal
Experimental: In a separate experiment, male BALB/c mice (BALB/cAnNHsd, Harlan Laboratories) were administered a single and immediate dose of 500 mg/kg of M53-PEG24-CEN09-106 with a drug loading of 2 drugs per antibody by intraperitoneal injection. Animal weights were recorded over a 22 day period and visual observations were made over a period of 146 days and compared to mice receiving a vehicle control. […] Mice regained normal control body weight by day 15.

[2] = Pharmacokinetics and serum stability, antibody and drug specific ELISA; type: in vivo, Balb/c mice; conditions: for serum half-life of the antibody portion / serum half-life of the steroid drug portion: Balb/c mice; for serum half-life of the antibody portion: EDC drug loading of 3; for serum half-life of the steroid drug portion: drug loading of 3; for serum stability half-life of the EDC: from ratio of slopes of serum decay of drug and antibody portions
Experimental: The steroid drug pharmacokinetics of M53-PEG24-CEN09-106 were measured using the drug specific ELISA described below. The comparison between the two ELISA results (antibody concentrations minus drug concentrations) was used to determine the rate of drug breakdown and thus examine M53-PEG24-CEN09-106 stability.
Serum was isolated from blood samples acquired by retro-orbital blood collection at 1, 2, 4, 8, 16, 26, and 40 days post-injection. […] Plasma concentrations of the steroid drug in M53-PEG24-CEN09-106 were measured as follows. Antigen coated ELISA plates were washed (×3) with PBS pH 7, blocked 30 min with PBS pH 7 containing 1% NFDM (PBS+NFDM), and then washed (×3) with PBS, pH 7. Diluted serum samples and standard curves of M53-PEG24-CEN09-106 were prepared in the above blocking buffer and applied to coated wells, incubated 30 min at RT, and the wells were washed (×3) with PBS, pH 7. Biotinylated 25C2E3 (a monoclonal IgG1 antibody specific for the steroid portion of PEG24-CEN09-106 and conjugated to biotin [Thermo Scientific, PN 21911]) was diluted to 100 ng/mL in PBS+NFDM and added (100 uL) to each well, incubated 30 min at RT, and the wells washed (×3) with PBS, pH 7. PNPP at 1 mg/mL in 1M DEA with 50 mM MgCl2, pH 9.8 was added (100 uL per well), and the absorbance at 405 nm was determined using a Wallac Victor^2 Model 1420-041 assay plate reader (Perkin Elmer, Gaithersburg, Md.) every 5 minutes for a total of 6 reads.
For both ELISAs, absorbance values from known standards were plotted as absorbance over time, generating a linear slope for each concentration. The slopes generated were then plotted against the respective concentrations of the standards, creating a second linear plot. The absorbance values for the unknown serum samples were plotted over time, establishing a slope for unknown sample. The linear estimate from the slope versus concentration plot was then used to extrapolate concentrations for each unknown sample based on their slope.
To determine serum stability of the intact EDC (drug release from the antibody over time) in these samples, the ratio of the slopes of serum decay of the drug portion to the serum decay of the antibody portion were calculated.

H520 = experiment: In vitro cancer cell cytotoxicity (CellTiter-Glo cell viability); type: cell-based, human
Text: EDCs were constructed using linker-ready agents PEG24-CEN09-106, PEG24-CEN09-107, PEG24-CEN10-110 and PEG24-CEN-319. As described in Example 1, linker-ready agent PEG24-CEN-319 contain digitoxigenin while the others contain scillarenin. Linker-ready agents PEG24-CEN09-106, PEG24-CEN09-107, PEG24-CEN10-110 all use different linkers. Specifically, PEG24-CEN09-106 and PEG24-CEN09-107 have different sugars in the linker, while PEG24-CEN10-110 contains a longer linker that includes a primary amine.
All of the cell lines below, except H520, express the Na,K-ATPase with the dysadherin subunit and so present the target of the antibody and drug in close proximity.

[3] = Pharmacokinetics with varying drug loading (antigen binding ELISA); type: in vivo; conditions: SCID beige mice
Experimental: Serum was isolated from blood samples taken by retro-orbital blood collection at 1 hour, and 1, 2, 3, 6, and 15 days post-injection. Blood was collected into heparin coated tubes followed by centrifugation (5,000×g, 5 minutes) to isolate plasma.
Antigen capture plates that were prepared by coating wells of 96 well clear bottom ELISA plates with CENP018 (SEQ ID NO: 17) conjugated to BSA at 400 ng BSA-peptide conjugate per well in 100 uL of 200 mM carbonate buffer, pH 9.6 overnight at 4° C. Antigen coated ELISA plates were washed (×3) with PBS pH 7, blocked 30 min with PBS pH 7 containing 1% NFDM (PBS+NFDM), and then washed (×3) with PBS, pH 7. […] Goat anti-mouse IgG alkaline phosphatase (cat. number: A1418, Sigma-Aldrich, St. Louis, Mo.) was diluted 1:15,000 in PBS+NFDM and added (100 uL) to each well, incubated 30 min at RT, and the wells washed (×3) with PBS, pH 7. PNPP at 1 mg/mL in 1M DEA with 50 mM MgCl2, pH 9.8 was added (100 uL per well), and the absorbance at 405 nm was determined using a Wallac Victor^2 Model 1420-041 assay plate reader (Perkin Elmer, Gaithersburg, Md.) every 5 minutes for a total of 6 reads. Absorbance values from known antibody concentration standards were used to determine the concentration of antibody in the serum samples.

B1: M53-PEG24-CEN09-106: Class 1 EDC: antibody M53 conjugated to linker-ready agent PEG24-CEN09-106 (scillarenin, 4-amino-xyloside, PEG24) (conjugate)
heavy: EVQLVESGGGLVQPKGTLKLSCAASGFSFNTHAMNWVRQAPGKSLEWVARTMSKSNNYATYYADSVKDRFIIRADDSQSMLYLQMNNLKTEDTAMYYCVRDDPKRGMDYWGQGTSVTVSSAKTTPPSVYPLAPGSAAQTNSMVTLGCLVKGYFPEPVTVTWNSGSLSSGVHTFPAVLQSDLYTLSSSVTVPSSTWPSETVTCNVAHPASSTKVDKKIE
light: GIVMSQSPSSLAVSVGEKVTMSCKPSQSLLYSRNQKIYLAWYQQKPGQSPKLLIYWASTRESGVPDRFTGSGSGTDFTLIISSVRAEDLAVYYCQQYYNYPLTFGAGTKLELKRADAAPTVSIFPPSSEQLTSGGASVVCFLNNFYPKDINVKWKIDGSERQNGVLNSWTDQDSKDSTYSMSSTLTLTKDEYERHNSYTCEATHKTSTSPIVKSFNR
growth inhibition of the tumor compared to vehicle (A549 xenograft; drug loading of 8, 0.1 mg/kg i.v. q7dx3, A549 xenograft): 35%
growth inhibition of the tumor compared to vehicle (A549 xenograft; drug loading of 8, 1 mg/kg i.v. q7dx3, A549 xenograft): 65%
visual observations ([1]; 146 days): no overt signs of toxicity
average loss in body weight ([1]; first 6 days post injection): 30%
serum half-life of the antibody portion ([2]; 1 mg/kg tail vein): 11.9 days
serum half-life of the steroid drug portion ([2]; 1 mg/kg tail vein): 11 days
serum stability half-life of the EDC ([2]; 1 mg/kg): 45 days
serum half-life of the antibody portion ([2]; 10 mg/kg tail vein): 9.2 days
serum half-life of the steroid drug portion ([2]; 10 mg/kg tail vein): 8 days
serum stability half-life of the EDC ([2]; 10 mg/kg): 39 days
EC50 (H520; H520 cells (no FXYD5 surface expression), 3 days incubation): > 50 nM
activity on H520 cells (H520; H520 cells do not express dysadherin (FXYD5)): not active
serum half-life of detectable antibody ([3]; drug loading of 2, 1 mg/kg tail vein): approximately 7 days
serum half-life of detectable antibody ([3]; drug loading of 5, 1 mg/kg tail vein): ~4 days
serum half-life of detectable antibody ([3]; drug loading of 9, 1 mg/kg tail vein): ~2 days
